Results as given in the nanobody polyreactivity screen of Harvey et al. (2022).

assay: yeast display, Sf9 membrane polyspecificity reagent, FACS + sequencing; frameworks hold sequencing errors
How it was run: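 Synthetic nanobody libraries on Saccharomyces cerevisiae BJ5465 were galactose-induced for 36–48 hours, stained 1 hour at 4 °C with 10% biotinylated, detergent-solubilized Sf9 membrane reagent and enriched on streptavidin microbeads. FACS then separated cells into low and high (top ~1%) gates by anti-HA (expression) and streptavidin (reagent binding) fluorescence. Genes were colony-PCR amplified, MiSeq 2 × 250 sequenced and CDR-length filtered. A clone's polyreactivity label is that of its gate of origin.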

Row | Sequence | polyreactivity (PSR sort gate)
1 | QVQLVESGGGLVQAGGSLRLSCAASGRTFYNNAMGWDRQAPGKERELVATINNRGGPTYYADSVKGRFTISRDNAQNTVYFQMNSLKPEDTAVYYCAASGWHGYNYWGQGTQVTVSS | high polyreactivity
2 | QVQLVESGGGIVQAGGSLSLSCAASGNIFTAYAMGWYRQAPGKERELVATITSSGDSTYYADSVKGRFTISRDNAKNTVYLQMNRLKPEDTSVYYFATADPSASNEVYEYDYWGQGTQVTVSS | low polyreactivity
3 | QVQLVESGGGLVQAGGSLRLSCAASGSNIGTYAMGWYRQAPGKERELVAAISSSGGRTYYADSVKGRFTISRDNAKNTVYLQMNSLKPEDTAVYYCATKRVLTGYDSWGQGTQVTVSS | high polyreactivity
4 | QVQLVESGGGLVQAGGSLRLSCAASGTFAVYTMGWYRQAPGKERELVAAISSGGSTYYADSVKGRFTISRDNAKNTVYLQMNSLKPEDTAVYYCAKVPGRYRADRYWDHYSHDYWGQGTQVTVSS | high polyreactivity
5 | QVQLVESGGGLVQAGGSLRLSCAASGCIFSDSTMGWYRQAPGKERELVAAISGIGGSTYYADSVKGRFTISRDNAKNTVYLQMNSLKPEDTAVYYCAADDYYYPYVSHDYWGQGTQVTVSS | low polyreactivity
6 | QVQLVESGGGLVQAGGSLRLSCAASGITFYSYTMGWYIQAPGKERELVAAISDNGGRTFYADSVKGRFTISRDNAKNTVYLQMNSLKPEDTAVYYCAADSYWYRFLKSRYDYWGQGTQVTVSS | low polyreactivity
7 | QVQHVESGGGLVQAGGSLRLSCAASGRTFKYYAMGWDRQAPGKERELVAAITRRGTSTYYADSVKGRFTISRDNAKNTVYLQMNSLKPEDTAVYYCNKDSPVTYSSRYGYWGQGTQVTVSS | high polyreactivity
8 | QVQLVESGGGLVQAGGSLRLSCAASGRTFFYYAMGWYRQAPGKERELVAAISTGGSTNYADSVKGRFTISRDNAKNTVYLQMNSLKPEDTAVYYCNADYDKGVRFNFNASFGEFDYWGQGTQVTVSS | low polyreactivity
9 | QVQLVESGGGLVPSGGSLRLSCAASGRIFTSNAMGWYRQAPGKERELVAAISKSGGRTYYADSVKGRFTISRDNAKNTVYLQMNSLKPEETAVYYFAKDNFWGQGTQVTLSS | high polyreactivity
10 | QVQLVESGGGLVQAGGSLRLSCAASGRTFGPYVMGWYRQAPGKERELVAAISFSGGSTYYADSVKGRFTISRDNAKNTVYLQMNSLKPEDTAVYYCAAPATRPYYTGYDYWGQGTQVTVSS | high polyreactivity
11 | QVQLVESGGGLVQAGGSLRLSCAASGRTFSVNAMGWYRQAPGKERELVAAITSGGSTYYADSVKGRFTISRDNAKNTVYLQMNSLKPEDTAVYYCNADLEPYDYWGQGTQVTVSS | low polyreactivity
12 | QVQLVESGGGLVQAGGSLRLSCAASGRIFRRNAMGWYRQAPGKERELVAAISSSGGRTYYADSVKGRFTISRDNAKNTVYLQMNSLKPEDTAVYYCATRESLEPGYYWGQGTQVTVSS | high polyreactivity
13 | QVQLVESGGGLVQAGGSLRLSCAASGRIFFWYARGWYRQAPGKEWELVAGITSGGSTNYADSVKGRFTISRDNAKNTVYLQMNSLKPEDTAVYYCAKRSYRTHTYDYWGQGTQVTVSS | low polyreactivity
14 | QVQLVESGGGLVQAGGSLRLSWAAYGRTILWYTMGWYRQAPGKERDLVADISSSGGTTFYADSVKGRFTISRDNAKNTVYLQMNSLKAVDNAVYYCKRNARKLRTVHSSVVGLDYWGQGTQVTVSS | low polyreactivity
15 | QVQLVESGGGLVQAGGSLRLSCAASGRTFQSYAMGWYRQAPGKERELVASITSGASTNYADSVKGRFTISRDNAKNTVYLQMNSLKPEDTAVYYCARRIGHGSRPYWLETWRYPYDYWGQGTQVTVSS | low polyreactivity
16 | QVQLVESGGGLVQAGGSLRLSCAASGRIFRYNAMGWYRQAPGKEWELVAAIRFSGGSTYYADSVKGRFTLSRDNAKNTVYLHMNSLKPEDTAVYYCAKVYFRVQSGMDYWGQGTQVTVST | low polyreactivity
17 | QVQLVESGGGLVQAGGSLRLSCAASGRIFRYNAKGWYRQAPGKERELVAAISRDGSTYYADSVKGRFTISRDNAKNTVYLQMKSLKPEDTAVYYCAAGYSRRGWRRAYNYWGQGTQVTVSS | high polyreactivity
18 | QVQLVESGGGLVQAGGSLRLSCAASVFTFTKYAMGWYRQAPGKERELVAAITRRGGRTYYADSVKGRFTISRDNAKNTVYLQMNSLKPEDTAVYYFNADIIWGSVSNGSEYDYWGQGTQVTVSS | high polyreactivity
19 | QVQLVESGGGLVQAGGSLRLSCAASGYTFWQYAMGWYRQAPGKERELVAAISGSGGRTYYADSVKGRFTISRDNAKNPVYLQMHSLKPEDTAVYYCAVGYRTPYLSRGGYWGQGTQVTVSS | high polyreactivity
20 | QVQLVESGGGLVQAGGSLRLSCAASGRTFRYYAMGWYRQAPGKERELVASISSTGGNTYYADSVKGRFTISRDNAKNTVYLQMNSLKPEDTAVYYCAAGAWTRGQYYYWGQGTQVTVSS | high polyreactivity

Row | Sequence | polyreactivity (PSR sort gate)
21 | QVQLVESGGGLVQAGGSLRISCAASGFTFYNYAMGWYRQAPGKRELVAAITSGGRTNYADSVKGRFTISRDNAKNTVYLQMNSRIPEDTAVYYCNAYPRWKFRSQVYDGWYGRFDYWGQGTQVTVSS | high polyreactivity
22 | QVHLVESGGGLVQAGGSLRLSCAASGRTFAYNTMGWYRQAPGKERELVAAISSDGSTNYADSVKGRFTISRDNAKNTVYLQMNSLKPEDTAVYYCAKGEGTGYSDTQVYEHDYWGQGTQVTVSS | low polyreactivity
23 | QVQLVDSWGGLVQAGGSLRLSCAASGSIFYRKAMGCYRQAPGKERELFAAITRSDVRTYYADSVKGRFTISRDNAKNTVYLQMNSLKPEDTAVYYCAALEYGSYQHFGEDYWGQGSQVTVSS | low polyreactivity
24 | QVQLVESGGGLVQAGGSLRLSCAASGITFKSYAMGWYRQAPGKERELVAAISRRGGSTYYADSVKGRFTISRDNAKNTVYLQMNSLKPEDTAVYYCAADSGREPKGPSRLTYWGQGTQVTVSS | high polyreactivity
25 | QVQLVESGGGLVQAGGSLRLSCAASGRIFPYNVMGWYRQAPGKERELVAAISSGGTTDYADSVKGRFTISRDNAKNTVYLQMNSLKPEDTAVYYCAATYVYWTWGYDYWGQGTQVTVSS | low polyreactivity
26 | QVQIVESGGGLVQAGGSLRLSCAASGFIFDYNAMGWYRQAPGKERELVAAISYSGGRTSYADSVKGRFTISRDNAKNTVYLQMNSLKPEDTAVYYCAKDNYVDFGGYYYPRMYYWGQGTQVTVSS | high polyreactivity
27 | QVQLVESGGGLVQAGGSLRLSCAASGSTYARYAMGWYRQAPGKEREFVAAISASGGRTYYADSVKGRFTISRDNAKNTVYLQMNSLKPEDTPVDYCAVRVYAKYFAKYDYWGQGTQVTVSS | high polyreactivity
28 | QVQLVESGGGLVQAGGSLRLSCAASGNIFDLYAMGWYRQAPGKERELVAAITRSSSRTYYADSVKGRFTISRDNAKNTVYLQMNSLKPEDTAVYYCRAKQVNRFDYWGQGTQVTVSS | high polyreactivity
29 | QVQLVESGGGLVQAGGSLRLSCAASGRTFNGYVMGWYRQAPGKERELVAAITNRDGSTYYADSVKGRFTISRDNAKNTVYLQMNSLKPEDTAVYYCAAPVWLWADRYDSWGQGTQVTVSS | low polyreactivity
30 | QLQLVESGGGLVQAGGSLRLSCAASGSIFNDTAMGSYRQAPGKDRELVAAISWNGGSTYYADSVKGRFTISRDNAKNTVYLQMNSLKPQDTAVYYCAVYARYWYLLHYRYGYWGQGTQVTVSS | low polyreactivity
31 | QVQLVESGGRLVQAGGSLRLSCAASGGIIRGYAMGWYRQAPGKEWELVATIRSSGRTNYADSVKGRFTISRDNEKNTVYFQMNSLKQEDTAVYYCAAVVRQYGFDYWGQGTQVTVSS | low polyreactivity
32 | QVQLVESGGGLVQAGGSLRLSSAASGYIFDWNAMGWYRQAPGKERELVAAISSGGRTNYADSVKGRFTISRDNAKNTVYLQMNSLKPEDTAVYYCAAVYTDPYVEYDYWGQGTQVTVSS | low polyreactivity
33 | QGQLVESGGGLVQAGGSLLLSCAASGRIFTGKAMGWSRQAPGKERELGAAIDWSGGSTYYADSVKGRFTISRDNAKNTVYLQMNSLKPEDTAVYYCNATYSNSAVGYLGFDYWGQGTQVTVSS | low polyreactivity
34 | QDQHVESVGGLVQAGGSLRLSCAASGRTFYRYAMGWSRQAPGKEREFVAAISHGGSNTRYADSVKGRFTISRDNAKNTVYLQMKSLKPEDTAVYYCAARAYQHYNWGQGTQVTVSS | high polyreactivity
35 | QVQLVESGGGLVQAGGSLRLSCAASGSTFKRYAMGWYRQAPGKERELVAAISTRGSTYYADSVKGRFTISRDNAKNTVYFQMNSLKPEDTAVYYCIARQALVWKWYWYSPGYDYWGQGTQVTVSS | low polyreactivity
36 | QVQLAESGGGLVQAGGSLRLSCAASGRIFYGYTMGWYRQAPGKERELVAAITWSGGSTYYADSVKGRFTISRDNAKNTVYLQMNSLKPKDTAVYYCAATLGNAADYDYGYWGQGTQVTVSS | high polyreactivity
37 | QVQLVESGGGLVQAGGRLRLICAASGYTFPLYAMGWYRPAPGKERELVADINIGGASTYYADSVKGRFTISRDNAKNTVELQMNSLKPEDPAVYYCAKEYYDGYFPTFDYDYWGQGTQVTVSS | low polyreactivity
38 | QVQLVESGGGLVQAGGSLRLSCAASGRTFYSNAMGWYRQAPGKERELVASISYGGGTTHYADSVKGRFTISRDNAKNTVYLQINSVKPEDTAVYYCAADPEHQWESVTIGEYDYWGQGTQVTVSS | low polyreactivity
39 | QVQLVESGGGLVQAGGSLRLSCAASGRTFGDNAMGWYRQAPWKERELVAAISRSGRTYYADSVKGRFTISRDNAKNTVYLQMNSLKPEYTAVYYCNTPYAHYVTHGLDYWGQGTQVTVSS | high polyreactivity
40 | QVQLVESGGCLVQAGGSLRLSCAASGIIFYQNSMGWYRQAPGKERELVAAISRSGGTTYYADSVKGRFTISRDNAKNTVYLLMNSVNPEVTAVYYCAAVGTGSGYYYWGQGTQVTVSS | high polyreactivity
